Measured values published in patent publication US20110200622A1 (SAMSUNG ELECTRONICS, published 2011).

Biological target: T1, human VEGF (R&D systems, Inc.; catalog #293-VE) (human, UniProt P15692-4 27-191)
T1 construct: Bought protein; It was biotinylated for bead panning and coated directly on the plate for the ELISAs; also called human vascular endothelial growth factor; human-derived vascular endothelial growth factor
Test: phage ELISA on plate-immobilised human VEGF, anti-M13-HRP, OD450
Description: E. coli XL1-Blue was infected with each of the phage clones obtained from the biopanning process, and the cells were cultured at 37° C. for 14 hours to obtain a phage solution. The VEGF was added to a 96-well microtiter plate (Nunc), and maintained at 4° C. for 18 hours to immobilize the VEGF on a surface of the plate. The plate with the immobilized VEGF was blocked with skim milk at room temperature for 1 hour, and 100 μl of the phage solution was added to the plate. Then, the phage and the VEGF were incubated together at room temperature for two hours, and washed using a PBS solution containing 0.1% Tween-20. Subsequently, an anti-M13 antibody (GE Healthcare) specifically reactive to the phage and conjugated with horseradish peroxidase (HRP) was added to the resultant product and incubated with each other at room temperature for 1 hour. Then, the plate was washed twice with a PBS solution containing 0.1% Tween-20. Lastly, 100 μl of trimethylbenzidine (TMB) (SIGMA), an HRP substrate, was added to each well of the plate to induce a color reaction. The reaction was stopped by adding 50 μl of 5N H₂SO₄ solution. The OD₄₅₀ value was read on a plate reader (Molecular Devices). […] To determine the base sequence of polynucleotides encoding the polypeptides specifically binding to the VEGF obtained from single clones of the phages, a colony polymerase chain reaction (PCR) was performed using two different primer sets (primer set SEQ ID NOS: 47 and 48; and primer set SEQ ID NOS: 49 and 50). Each primer set was used according to the origin of the Dyax polypeptide library. […] The PCR was performed using a GeneAmp PCR system 9700 (Applied Biosystem), with the following PCR conditions: 30 cycles of 94° C. for 5 minutes, 94° C. for 1 minute, 60° C. for 1 minute, and 72° C. for 1.5 minutes; 72° C. for 10 minutes; and cooling to 4° C. Subsequently, polynucleotide fragments obtained by the PCR reaction were washed and then sequenced (Solgent).

T1 sequence (P15692 other isoform, or with tags, fused parts or gaps limits assumed): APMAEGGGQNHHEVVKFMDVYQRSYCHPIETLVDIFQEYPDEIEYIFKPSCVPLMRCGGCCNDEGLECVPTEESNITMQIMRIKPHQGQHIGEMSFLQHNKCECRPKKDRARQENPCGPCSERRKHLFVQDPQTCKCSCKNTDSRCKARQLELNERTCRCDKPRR

Row | Binder | binding result
1 | HDYAFYSAW (peptide, not shown: large carriers, Tested as a phage clone in phage ELISA) [polypeptide clone number 44, displayed on phage] | binds
2 | SRFEMWNDIS (peptide, not shown: large carriers, Tested as a phage clone in phage ELISA) [polypeptide clone number 70, displayed on phage] | binds
3 | QMDRMFPHVG (peptide, not shown: large carriers, Tested as a phage clone in phage ELISA) [polypeptide clone number 65, displayed on phage] | binds
4 | YGYPWSGT (peptide, not shown: large carriers, Tested as a phage clone in phage ELISA) [polypeptide clone number 34, displayed on phage] | binds
5 | QRDQQYKHMY (peptide, not shown: large carriers, Tested as a phage clone in phage ELISA) [polypeptide clone number 50, displayed on phage] | binds
6 | MKSAMYHDIR (peptide, not shown: large carriers, Tested as a phage clone in phage ELISA) [polypeptide clone number 82, displayed on phage] | binds
7 | PHQEMWQFES (peptide, not shown: large carriers, Tested as a phage clone in phage ELISA) [polypeptide clone number 78, displayed on phage] | binds
8 | RLFEMYPSLE (peptide, not shown: large carriers, Tested as a phage clone in phage ELISA) [polypeptide clone number 69, displayed on phage] | binds
9 | RMGPFGTTH (peptide, not shown: large carriers, Tested as a phage clone in phage ELISA) [polypeptide clone number 40, displayed on phage] | binds
10 | PIGQRWNRLE (peptide, not shown: large carriers, Tested as a phage clone in phage ELISA) [polypeptide clone number 68, displayed on phage] | binds
11 | MHRPWPWDMF (peptide, not shown: large carriers, Tested as a phage clone in phage ELISA) [polypeptide clone number 56, displayed on phage] | binds
12 | DRFSMWKNLE (peptide, not shown: large carriers, Tested as a phage clone in phage ELISA) [polypeptide clone number 66, displayed on phage] | binds
13 | PRLSMWQNME (peptide, not shown: large carriers, Tested as a phage clone in phage ELISA) [polypeptide clone number 63, displayed on phage] | binds
14 | DFLKMYRDEK (peptide, not shown: large carriers, Tested as a phage clone in phage ELISA) [polypeptide clone number 52, displayed on phage] | binds
15 | DRYSQYQSPM (peptide, not shown: large carriers, Tested as a phage clone in phage ELISA) [polypeptide clone number 16, displayed on phage] | binds
16 | PRFEMWHDDK (peptide, not shown: large carriers, Tested as a phage clone in phage ELISA) [polypeptide clone number 55, displayed on phage] | binds
17 | QRDEMYPHLN (peptide, not shown: large carriers, Tested as a phage clone in phage ELISA) [polypeptide clone number 76, displayed on phage] | binds
18 | YRGVWGGYF (peptide, not shown: large carriers, Tested as a phage clone in phage ELISA) [polypeptide clone number 42, displayed on phage] | binds
19 | EDYRFYSVW (peptide, not shown: large carriers, Tested as a phage clone in phage ELISA) [polypeptide clone number 13, displayed on phage] | binds
20 | ERTEMFPSAS (peptide, not shown: large carriers, Tested as a phage clone in phage ELISA) [polypeptide clone number 73, displayed on phage] | binds
21 | FDKYYRDWFI (peptide, not shown: large carriers, Tested as a phage clone in phage ELISA) [polypeptide clone number 83, displayed on phage] | binds
